This is an account of results in patent US20110008345A1 (GlaxoSmithKline, published 2011).

Where two headings read alike, the source gives them in different places.

Assay [1] has as its target T1, recombinant E. coli-expressed human IL-13 (human, UniProt P35225 35-146).
T1 construct: made and purified at GSK; also called Interleukin-13; rhIL-13
The experiment in a line: ELISA. Background: An ELISA detects its analyte on a solid surface through an enzyme-linked reagent.

The target of assay [2] is T2, recombinant E. coli-expressed human IL-4 (human, UniProt P05112 25-153).
T2 construct: made and purified at GSK; also called Interleukin-4; rhIL-4
T2 sequence: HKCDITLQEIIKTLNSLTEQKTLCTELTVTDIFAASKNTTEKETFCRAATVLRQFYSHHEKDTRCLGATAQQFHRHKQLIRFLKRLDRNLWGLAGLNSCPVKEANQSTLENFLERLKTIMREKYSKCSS
The experiment in a line: ELISA.

For a further assay, the target named is T3, RNAse A (UniProt P61823 27-150).
T3 sequence (looked up): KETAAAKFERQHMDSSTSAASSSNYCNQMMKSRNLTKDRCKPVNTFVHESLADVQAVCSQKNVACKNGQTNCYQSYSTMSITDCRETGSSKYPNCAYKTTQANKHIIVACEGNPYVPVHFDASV
The experiment in a line: ELISA.

Assay [3] concerns the target recombinant human TNF-alpha (human, UniProt P01375 77-233). The experiment in a line: ELISA, supernatant.
The target of assay [4] is T2, recombinant E. coli-expressed human IL-4. Put plainly: ELISA, supernatant.
The target of a further assay is T4, HEL (Hen Egg Lysozyme) (hen, UniProt P00698 19-147).
T4 construct: also called hen egg white lysozyme
T4 sequence (P00698 19-147): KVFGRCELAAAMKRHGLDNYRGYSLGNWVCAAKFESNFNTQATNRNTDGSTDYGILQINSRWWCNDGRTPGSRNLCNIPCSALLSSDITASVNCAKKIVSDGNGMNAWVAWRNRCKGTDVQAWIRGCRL
Put plainly: ELISA.

In assay [5] the target is T5, recombinant Sf21-expressed human IL-5 (human, UniProt P05113 20-134). Put plainly: SPR. Background: In SPR one partner is held on a chip, and binding of the other changes the refractive index at the surface.
Assay [6] addresses recombinant E. coli-expressed human IL-18 (human, UniProt Q14116 37-193). The experiment in a line: SPR.
Assay [7] deals with T1, recombinant E. coli-expressed human …. Put plainly: cell-based or functional assay.
Assay [8] concerns the target T6, recombinant E. coli-expressed cynomolgus IL-13 (cynomolgus, UniProt Q0PW92 21-132).
T6 construct: also called cyno IL-13
The experiment in a line: SPR.

Assay [9] has as its target T1, recombinant E. coli-expressed human …. Put plainly: SPR, no IL-4 bound.
Assay [10] has the same target. Put plainly: SPR.
In assay [11] the target is T6, recombinant E. coli-expressed …. Put plainly: SPR. The source holds these as a separate data set.
In assay [12] the target is T7, recombinant E. coli-expressed cynomolgus IL-4 (cynomolgus, UniProt P79339 25-153).
T7 construct: also called cyno IL-4
T7 sequence (looked up): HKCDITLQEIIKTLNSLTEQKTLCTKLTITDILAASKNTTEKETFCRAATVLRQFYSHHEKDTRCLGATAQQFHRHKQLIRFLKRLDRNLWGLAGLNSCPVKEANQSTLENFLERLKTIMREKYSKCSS
Put plainly: SPR.

Assay [13] deals with T1, recombinant E. coli-expressed human …. The experiment in a line: SPR. This is another data set of the same source.
For assay [14] the target is unchanged. Put plainly: SPR exp 3.
Assay [15] has the same target. Put plainly: SPR. This is another data set of the same source.
The target is the same in assay [16]. Put plainly: SPR stoichiometry.
For assay [17] the target is unchanged. Put plainly: SPR exp 1.
Assay [18] deals with T2, recombinant E. coli-expressed human IL-4. The experiment in a line: SPR exp 1.
Assay [19] addresses T6, recombinant E. coli-expressed …. The experiment in a line: SPR. The source holds these as a separate data set.
The target in assay [20] is T1, recombinant E. coli-expressed human …. The experiment in a line: SPR exp 1. The source holds these as a separate data set.
The target is the same in assay [21]. The experiment in a line: SPR exp 2.
Assay [22] shares this target. Put plainly: SPR, purified.
Assay [23] deals with T5, recombinant Sf21-expressed human IL-5. Put plainly: ELISA.
Assay [24] concerns the target T1, recombinant E. coli-expressed human …. The experiment in a line: ELISA, IL-13 binding to IL13Ralpha2/Fc.
Assay [25] shares this target. Put plainly: SPR. This is another data set of the same source.
The target is the same in assay [26]. Put plainly: SPR exp 1. The source holds these as a separate data set.
For assay [27] the target is unchanged. The experiment in a line: SPR, purified. The source holds these as a separate data set.
In assay [28] the target is T2, recombinant E. coli-expressed human IL-4. The experiment in a line: SPR.
Assay [29] has the same target. Put plainly: SPR, positive dissociation.
For assay [30] the target is unchanged. Put plainly: SPR, purified.

By Kd is commonly meant the constant that tells how readily two partners part at equilibrium. Broadly, the koff is a measure of how fast the partners let go of each other. In general, kon refers to the second-order rate constant of association. The term IC50 denotes the concentration that inhibits the measured activity by half.

B1: PascoL-ELQLE-474 (bispecific antibody, human IgG1, kappa)
heavy: not shown
light: DIVLTQSPSSLSASVGDRVTITCKASQSVDYDGDSYMNWYQQKPGKAPKLLIYAASNLESGIPSRFSGSGSGTDFTFTISSLQPEDIATYYCQQSNEDPPTFGQGTKVEIKRTVAAPSVFIFPPSDEQLKSGTASVVCLLNNFYPREAKVQWKVDNALQSGNSQESVTEQDSKDSTYSLSSTLTLSKADYEKHKVYACEVTHQGLSSPVTKSFNRGECELQLEESCAEAQDGELDGGSGVQLLESGGGLVQPGGSLRLSCAASGFTFAWYDMGWVRQAPGKGLEWVSSIDWHGEVTYYADSVKGRFTISRDNSKNTLYLQMNSLRAEDTAVYYCATAEDEPGYDYWGQGTLVTVSS
B1: the binding result in assay [1] and in assay [2] was “binds” throughout.

B2: BPC1809 (bispecific antibody, human IgG1, kappa)
heavy: not shown
light: DIVLTQSPSSLSASVGDRVTITCKASQSVDYDGDSYMNWYQQKPGKAPKLLIYAASNLESGIPSRFSGSGSGTDFTFTISSLQPEDIATYYCQQSNEDPPTFGQGTKVEIKRTVAAPSVFIFPPSDEQLKSGTASVVCLLNNFYPREAKVQWKVDNALQSGNSQESVTEQDSKDSTYSLSSTLTLSKADYEKHKVYACEVTHQGLSSPVTKSFNRGEC
notes: also called Anti IL-4 heavy Chain-GS-anti RNAse A camelidVHH
For B2, the binding result (with RNAse A; in assay [2]) was “binds” throughout.

B3: BPC1823 (bispecific antibody, human IgG1, kappa)
heavy: not shown
light: DIVLTQSPSSLSASVGDRVTITCKASQSVDYDGDSYMNWYQQKPGKAPKLLIYAASNLESGIPSRFSGSGSGTDFTFTISSLQPEDIATYYCQQSNEDPPTFGQGTKVEIKRTVAAPSVFIFPPSDEQLKSGTASVVCLLNNFYPREAKVQWKVDNALQSGNSQESVTEQDSKDSTYSLSSTLTLSKADYEKHKVYACEVTHQGLSSPVTKSFNRGEC
notes: also called Anti IL-4 Heavy Chain-GS-anti TNF-a adnectin
Turning to B3, the binding result in assay [3] and in [4] was “binds” throughout.

B4: BPC1822 (bispecific antibody, human IgG1, kappa)
heavy: not shown
light: DIVLTQSPSSLSASVGDRVTITCKASQSVDYDGDSYMNWYQQKPGKAPKLLIYAASNLESGIPSRFSGSGSGTDFTFTISSLQPEDIATYYCQQSNEDPPTFGQGTKVEIKRTVAAPSVFIFPPSDEQLKSGTASVVCLLNNFYPREAKVQWKVDNALQSGNSQESVTEQDSKDSTYSLSSTLTLSKADYEKHKVYACEVTHQGLSSPVTKSFNRGEC
On to B4, for which the binding result in [3] and in assay [4] was “binds” throughout.

B5: BPC1816 (bispecific antibody, human IgG1, kappa)
heavy: not shown
light: DIVLTQSPSSLSASVGDRVTITCKASQSVDYDGDSYMNWYQQKPGKAPKLLIYAASNLESGIPSRFSGSGSGTDFTFTISSLQPEDIATYYCQQSNEDPPTFGQGTKVEIKRTVAAPSVFIFPPSDEQLKSGTASVVCLLNNFYPREAKVQWKVDNALQSGNSQESVTEQDSKDSTYSLSSTLTLSKADYEKHKVYACEVTHQGLSSPVTKSFNRGEC
notes: also called Anti IL-4 heavy Chain-GS-NARV
Regarding B5, the binding result (with HEL (Hen Egg Lysozyme); in [2]) was “binds” throughout.

B6: Mepolizumab (Anti-human IL-5 monoclonal antibody) (antibody, human IgG1, kappa, V domains shown)
VH: QVTLRESGPALVKPTQTLTLTCTVSGFSLTSYSVHWVRQPPGKGLEWLGVIWASGGTDYNSALMSRLSISKDTSRNQVVLTMTNMDPVDTATYYCARDPPSSLLRLDYWGRGTLVTVSS
VL: DIVMTQSPDSLAVSLGERATINCKSSQSLLNSGNQKNYLAWYQQKPGQPPKLLIYGASTRESGVPDRFSGSGSGTDFTLTISSLQAEDVAVYYCQNVHSFPFTFGGGTKLEIKR
notes: also called IL-5 mAb; anti-human IL5 mAb
As to B6, the binding result in assay [1] and in assay [2] was “no binding” in each case. In addition, the Kd in assay [5] was 0.34 nM.

B7: Anti-human IL-18 (humanised) monoclonal antibody (antibody, human IgG1, kappa, V domains shown)
VH: QVQLVQSGAEVKKPGASVKVSCKVSGEISTGYYFHWVRQAPGKGLEWMGRIDPEDDSTKYAERFKDRVTMTEDTSTDTAYMELSSLRSEDTAVYYCTTWRIYRDSSGRPFYVMDAWGQGTLVTVSS
VL: DIQMTQSPSSVSASVGDRVTITCLASEDIYTYLTWYQQKPGKAPKLLIYGANKLQDGVPSRFSGSGSGTDYTLTISSLQPEDFATYYCLQGSKFPLTFGQGTKLEIKR
notes: also called Anti-human IL-18 mAb
For B7, the Kd in assay [6] came out at 0.035 nM.

B8: Anti-human IL-13 monoclonal antibody (also known as 586) (antibody, human IgG1, kappa)
heavy: not shown
light: DIVMTQSPLSLPVTPGEPASISCRSSQNIVHINGNTYLEWYLQKPGQSPRLLIYKISDRFSGVPDRFSGSGSGTDFTLKISRVEADDVGIYYCFQGSHVPWTFGQGTKLEIKRTVAAPSVFIFPPSDEQLKSGTASVVCLLNNFYPREAKVQWKVDNALQSGNSQESVTEQDSKDSTYSLSSTLTLSKADYEKHKVYACEVTHQGLSSPVTKSFNRGEC
notes: also called Anti-human IL-13 mAb; anti-IL13 mAb
Turning to B8, in assay [7], the “Mean IC50 (whole blood phospho-STAT6)” value amounted to 1.47 nM. The Kd in assay [8] stood at 0.119 nM; in [9], 0.366 nM; in assay [10] it was 0.41 nM; in [11] it was 0.222 nM; in assay [13] it was 0.377 nM; in assay [14], 0.547 nM. In addition, the Kd in assay [15] was determined as 0.38 nM; in assay [17] it was 0.28 nM; in assay [19], 0.171 nM; in assay [20], 0.57 nM; in [21], 0.67 nM; in assay [22], 0.41 nM. Moreover, the Kd is 0.38 nM in assay [25], 0.28 nM in [26] and 0.43 nM in assay [27]. The koff is 6.55e-05 s⁻¹ in [8]; 0.000368 s⁻¹ in assay [9]; 0.000105 s⁻¹ in [11]; 0.000378 s⁻¹ in assay [13]; 8.22e-05 s⁻¹ in assay [19]; 0.00049 s⁻¹ in assay [20]. In addition, the koff in assay [21] was 0.000611 s⁻¹. In addition, the kon in assay [8] is 550000 M⁻¹ s⁻¹; in assay [9], 1.01e+06 M⁻¹ s⁻¹; in assay [11], 474000 M⁻¹ s⁻¹; in assay [13], 1e+06 M⁻¹ s⁻¹; in assay [19], 479000 M⁻¹ s⁻¹; in assay [20] it was 860000 M⁻¹ s⁻¹. The binding result in [12] is reported as “no binding”; in assay [18] it was “no binding (tested: 256 nM)”; in assay [23] it was “no binding”. The Stoichiometry in [16] was found to be 1.8. Moreover, the IC50 in assay [24] was determined as 6.43 nM.

B9: 586H-TVAAPS-154 (bispecific antibody, human IgG1, kappa)
heavy: not shown
light: DIVMTQSPLSLPVTPGEPASISCRSSQNIVHINGNTYLEWYLQKPGQSPRLLIYKISDRFSGVPDRFSGSGSGTDFTLKISRVEADDVGIYYCFQGSHVPWTFGQGTKLEIKRTVAAPSVFIFPPSDEQLKSGTASVVCLLNNFYPREAKVQWKVDNALQSGNSQESVTEQDSKDSTYSLSSTLTLSKADYEKHKVYACEVTHQGLSSPVTKSFNRGEC
Consider B9, for which, in assay [28], the koff came out at 1.15e-07 s⁻¹. In addition, in assay [28], the kon is 64400 M⁻¹ s⁻¹. Further, the Kd in [15] came to 0.56 nM; in assay [29], 0.002 nM; in assay [27], 0.41 nM; in assay [30], 0.49 nM.
